Results taken from the RNAGym collection of RNA variant scans (doi:10.1093/molbev/msab373).

B1: Azoarcus group I ribozyme (parent)
chain: GUGCCUUGCGCCGGGAAACCACGCAAGGGAUGGUGUCAAAUUCGGCGAAACCUAAGCGCCCGCCCGGGCGUAUGGCAACGCCGAGCCAAGCUUCGGCGCCUGCGCCGAUGAAGGUGUAGAGACUAGACGGCACCCACCUAAGGCAAACGCUAUGGUGAAGGCAUAGUCCAGGGAGUGGCGAAAGUCACACAAACCGG

Variants of: B1
Experiment: reverse-splicing fitness (ratio to wild type); higher = more active; in vitro selection; Mg2+ level not given
Procedure, shortened: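 An in vitro group I ribozyme library with randomized positions was T7-transcribed and gel-purified. In triplicate, 10 pmol RNA in EPPS pH 7.5 was reacted with 50 pmoles of a 30-nt RNA substrate for 1 h at 37 °C across several added MgCl2 levels (1–48 mM), then stopped with EDTA. Products were reverse transcribed from a substrate-complementary primer, PCR-amplified and sequenced (HiSeq 4000). Fitness is a variant's read proportion after selection over that before, normalised to wild type.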

Row | Variant | reverse-splicing fitness
1 | C82G A111U A120U A145C C150A C169U | 0.0027
2 | C82G A111U A120U A145C C150A C169G | 0.00272
3 | C82G A111U A120U A145C C150A C169A | 0.00264
4 | C82G A111U A120G A145C C150G C169G U176G | 0.00464
5 | C82G A111U A120G A145C C150G C169G U176A | 0.00853
6 | C82G A111U A120G A145C C150G C169G U176C | 0.00745
7 | C82G A111U A120G A145G C169A | 0.0111
8 | C82G A111U A120G A145G C169G | 0.0141
9 | C82G A111U A120G A145G C169U | 0.00985
10 | C82G A111U A120G A145G C150U C169A U176C | 0.0145
11 | C82G A111U A120G A145G C150U C169A U176A | 0.0158
12 | C82G A111U A120G A145G C150U C169A U176G | 0.00683
13 | C82G A111U A120G A145C U176G | 0.0065
14 | C82G A111U A120G A145C U176C | 0.0136
15 | C82G A111U A120G A145C U176A | 0.012
16 | C82G A111U A120G C169G U176G | 0.00448
17 | C82G A111U A120G C169G U176A | 0.0187
18 | C82G A111U A120G C169G U176C | 0.0225
19 | C82G A111U A120U A145C C150A | 0.00458
20 | C82G A111U A120G C150A C169G U176A | 0.0227
21 | C82G A111U A120G C150A C169G U176C | 0.0245

Row | Variant | reverse-splicing fitness
22 | C82G A111U A120G C150A C169G U176G | 0.00607
23 | C82G A111U A120C C169G | 0.00915
24 | C82G A111U A120C C169A | 0.00833
25 | C82G A111U A120C C169U | 0.0134
26 | C82G A111U A120C C150U C169G U176G | 0.00625
27 | C82G A111U A120C C150U C169G U176C | 0.0194
28 | C82G A111U A120C C150U C169G U176A | 0.0159
29 | C82G A111U A120G A145G C150A U176G | 0.00873
30 | C82G A111U A120G A145G C150A U176C | 0.0219
31 | C82G A111U A120G A145G C150A U176A | 0.011
32 | C82G A111U A120G A145G C150A C169G U176A | 0.0165
33 | C82G A111U A120G A145G C150A C169G U176G | 0.0053
34 | C82G A111U A120G A145G C150A C169G U176C | 0.025
35 | C82G A111U A120G A145C C150A C169G U176C | 0.0144
36 | C82G A111U A120G A145C C150A C169G U176G | 0.00516
37 | C82G A111U A120G A145C C150A C169G U176A | 0.0229
38 | C82G A111U A120C C150A C169A | 0.0127
39 | C82G A111U A120C C150A C169U | 0.0114
40 | C82G A111U A120C C150A C169G | 0.00894
41 | C82G A111U A120G C150U C169U U176G | 0.00743
42 | C82G A111U A120G C150U C169U U176A | 0.0199

Row | Variant | reverse-splicing fitness
43 | C82G A111U A120G C150U C169U U176C | 0.0168
44 | C82G A111U A120G A145C C150A C169U U176A | 0.0211
45 | C82G A111U A120G A145C C150A C169U U176C | 0.0103
46 | C82G A111U A120G A145C C150A C169U U176G | 0.00529
47 | C82G A111U A120G C150G U176C | 0.0117
48 | C82G A111U A120G C150G U176G | 0.00354
49 | C82G A111U A120G C150G U176A | 0.00658
50 | C82G A111U A120G A145U C150U C169U U176C | 0.0167
51 | C82G A111U A120G A145U C150U C169U U176A | 0.0188
52 | C82G A111U A120G A145U C150U C169U U176G | 0.00486
53 | C82G A111U A120C C169G U176A | 0.0203
54 | C82G A111U A120C C169G U176G | 0.00577
55 | C82G A111U A120C C169G U176C | 0.0244
56 | C82G A111U A120G A145U C150G C169G U176G | 0.00425
57 | C82G A111U A120G A145U C150G C169G U176C | 0.00489
58 | C82G A111U A120G A145U C150G C169G U176A | 0.00644
59 | C82G A111U A120G C150A C169A U176A | 0.0207
60 | C82G A111U A120G C150A C169A U176C | 0.0211
61 | C82G A111U A120G C150A C169A U176G | 0.00601
62 | C82G A111U A120G C150G C169G U176A | 0.0069
63 | C82G A111U A120G C150G C169G U176C | 0.00484

Row | Variant | reverse-splicing fitness
64 | C82G A111U A120G C150G C169G U176G | 0.00471
65 | C82G A111U A120C C150A C169G U176A | 0.0181
66 | C82G A111U A120C C150A C169G U176C | 0.0267
67 | C82G A111U A120C C150A C169G U176G | 0.00701
68 | C82G A111U A120G A145U C150U C169G U176G | 0.00511
69 | C82G A111U A120G A145U C150U C169G U176A | 0.0145
70 | C82G A111U A120G A145U C150U C169G U176C | 0.017
71 | C82G A111U A120U A145C C150A C169G U176A | 0.00283
72 | C82G A111U A120U A145C C150A C169G U176C | 0.00259
73 | C82G A111U A120U A145C C150A C169G U176G | 0.00199
74 | C82G A111U A120G A145G C150G C169A U176G | 0.00831
75 | C82G A111U A120G A145G C150G C169A U176C | 0.0126
76 | C82G A111U A120G A145G C150G C169A U176A | 0.0133
77 | C82G A111U A120G A145C C150G U176C | 0.0105
78 | C82G A111U A120G A145C C150G U176A | 0.0058
79 | C82G A111U A120G A145C C150G U176G | 0.00342
80 | C82G A111U A120G A145C C150U C169G U176C | 0.0136
81 | C82G A111U A120G A145C C150U C169G U176G | 0.00518
82 | C82G A111U A120G A145C C150U C169G U176A | 0.023
83 | C82G A111U A120G A145G C150G U176A | 0.00727
84 | C82G A111U A120G A145G C150G U176C | 0.0109
